Test results: the supplement of paper PMC6757056
± gives the standard deviation of the averaged measurements.

B1: library; a variant is named by its letters at N, in order (parent)
chain: GCUGUCACCGAGAAACUGUGAAGUAUAUCUUAAACCUGGGCACUUAAAAGAUAUAUGGAGUUAGUAGUGCAACCUGCUCGGUCUGAUGAGUCCNNNNNNGGACGAAACAGC

Columns and labels:
cyclic di-GMP [1] = variants of: B1; experiment: normalized RNA/DNA level without ligand (relative to sTRSVctl = 100) (log10 (% of sTRSVctl)); HEK293T; ligand: cyclic di-GMP (c-di-GMP-II aptamer); higher = less ribozyme self-cleavage, higher mRNA level; details: reporter: mCherry (pCS4076), ligand present: no
In short: (§1)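 HEK293T cells received ligand, where used, 1 h before being transfected with 4 µg per 6-well well of library plasmids encoding reporter-linked ribozyme switches. After 72 h, RNA was extracted with EDTA and sequenced. RNA level was derived from RNA reads per DNA read, normalized to a spiked-in non-cleaving sequence or the top sequences, then scaled and log-transformed. Values were ×100 then log10, the top set was 25 sequences, and the minimum was 100 DNA reads.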

cyclic di-GMP [2] = variants of: B1; experiment: normalized RNA/DNA level with ligand (relative to sTRSVctl = 100) (log10 (% of sTRSVctl)); HEK293T; ligand: cyclic di-GMP (c-di-GMP-II aptamer); ligand concentration (+) RNA-Seq: 1 mM; higher = less ribozyme self-cleavage, higher mRNA level; details: reporter: mCherry (pCS4076), ligand present: yes
In short: as §1

Variant	normalized RNA/DNA level without ligand (log10) (cyclic di-GMP [1])	normalized RNA/DNA level with ligand (log10) (cyclic di-GMP [2])
GCUGUCACCGAGAAACUGUGAAGUAUAUCUUAAACCUGGGCACUUAAAAGAUAUAUGGAGUUAGUAGUGCAACCUGCUCGGUCUGAUGAGUCCAGUUGUGGACGAAACAGC [AGUUGU]	1.66 ± 0.048	1.85 ± 0.11
GCUGUCACCGAGAAACUGUGAAGUAUAUCUUAAACCUGGGCACUUAAAAGAUAUAUGGAGUUAGUAGUGCAACCUGCUCGGUCUGAUGAGUCCUAAUCAGGACGAAACAGC [UAAUCA]	1.756 ± 0.0092	1.87 ± 0.072
GCUGUCACCGAGAAACUGUGAAGUAUAUCUUAAACCUGGGCACUUAAAAGAUAUAUGGAGUUAGUAGUGCAACCUGCUCGGUCUGAUGAGUCCGGCUCAGGACGAAACAGC [GGCUCA]	1.69 ± 0.021	1.88 ± 0.22
GCUGUCACCGAGAAACUGUGAAGUAUAUCUUAAACCUGGGCACUUAAAAGAUAUAUGGAGUUAGUAGUGCAACCUGCUCGGUCUGAUGAGUCCUGUUUGGGACGAAACAGC [UGUUUG]	1.77 ± 0.014	1.91 ± 0.12
GCUGUCACCGAGAAACUGUGAAGUAUAUCUUAAACCUGGGCACUUAAAAGAUAUAUGGAGUUAGUAGUGCAACCUGCUCGGUCUGAUGAGUCCUCCCCAGGACGAAACAGC [UCCCCA]	1.79 ± 0.034	1.91 ± 0.2
GCUGUCACCGAGAAACUGUGAAGUAUAUCUUAAACCUGGGCACUUAAAAGAUAUAUGGAGUUAGUAGUGCAACCUGCUCGGUCUGAUGAGUCCGCGACUGGACGAAACAGC [GCGACU]	1.57 ± 0.018	1.73 ± 0.089
GCUGUCACCGAGAAACUGUGAAGUAUAUCUUAAACCUGGGCACUUAAAAGAUAUAUGGAGUUAGUAGUGCAACCUGCUCGGUCUGAUGAGUCCUGCAACGGACGAAACAGC [UGCAAC]	1.728 ± 0.0076	1.87 ± 0.099
GCUGUCACCGAGAAACUGUGAAGUAUAUCUUAAACCUGGGCACUUAAAAGAUAUAUGGAGUUAGUAGUGCAACCUGCUCGGUCUGAUGAGUCCUCAUCGGGACGAAACAGC [UCAUCG]	1.79 ± 0.023	1.88 ± 0.086
GCUGUCACCGAGAAACUGUGAAGUAUAUCUUAAACCUGGGCACUUAAAAGAUAUAUGGAGUUAGUAGUGCAACCUGCUCGGUCUGAUGAGUCCAUCGAAGGACGAAACAGC [AUCGAA]	1.45 ± 0.084	1.67 ± 0.09
GCUGUCACCGAGAAACUGUGAAGUAUAUCUUAAACCUGGGCACUUAAAAGAUAUAUGGAGUUAGUAGUGCAACCUGCUCGGUCUGAUGAGUCCGGAGCCGGACGAAACAGC [GGAGCC]	1.85 ± 0.011	1.9 ± 0.1
GCUGUCACCGAGAAACUGUGAAGUAUAUCUUAAACCUGGGCACUUAAAAGAUAUAUGGAGUUAGUAGUGCAACCUGCUCGGUCUGAUGAGUCCAGAUCUGGACGAAACAGC [AGAUCU]	1.72 ± 0.045	1.85 ± 0.084
GCUGUCACCGAGAAACUGUGAAGUAUAUCUUAAACCUGGGCACUUAAAAGAUAUAUGGAGUUAGUAGUGCAACCUGCUCGGUCUGAUGAGUCCUCGUGCGGACGAAACAGC [UCGUGC]	1.67 ± 0.017	1.86 ± 0.12
GCUGUCACCGAGAAACUGUGAAGUAUAUCUUAAACCUGGGCACUUAAAAGAUAUAUGGAGUUAGUAGUGCAACCUGCUCGGUCUGAUGAGUCCCGGAAGGGACGAAACAGC [CGGAAG]	1.745 ± 0.015	1.86 ± 0.1
